Assay [1] addresses T1, trypsin inhibitor from glycine max soybean (Glycine max (soybean)).
T1 construct: also called Tryp
Description: SPR (Biacore T200), trypsin inhibitor on CM5 chip, sample at 1 µM. From the text:
To prepare the surface for the non-specific binding experiment, chicken egg white lysozyme and trypsin inhibitor from glycine max soybean were coupled manually to a series S CM5 chip with the surface density of 3000-5000 RU using the amine coupling kit according to the manufacture instructions.
(In general: SPR reads the build-up and loss of mass on a sensor chip optically.)

Assay [2] concerns the target T2, Human DLL3-His (human, UniProt Q9NYJ7 27-492).
T2 construct: also called huDLL3-His; hu DLL3
T2 sequence: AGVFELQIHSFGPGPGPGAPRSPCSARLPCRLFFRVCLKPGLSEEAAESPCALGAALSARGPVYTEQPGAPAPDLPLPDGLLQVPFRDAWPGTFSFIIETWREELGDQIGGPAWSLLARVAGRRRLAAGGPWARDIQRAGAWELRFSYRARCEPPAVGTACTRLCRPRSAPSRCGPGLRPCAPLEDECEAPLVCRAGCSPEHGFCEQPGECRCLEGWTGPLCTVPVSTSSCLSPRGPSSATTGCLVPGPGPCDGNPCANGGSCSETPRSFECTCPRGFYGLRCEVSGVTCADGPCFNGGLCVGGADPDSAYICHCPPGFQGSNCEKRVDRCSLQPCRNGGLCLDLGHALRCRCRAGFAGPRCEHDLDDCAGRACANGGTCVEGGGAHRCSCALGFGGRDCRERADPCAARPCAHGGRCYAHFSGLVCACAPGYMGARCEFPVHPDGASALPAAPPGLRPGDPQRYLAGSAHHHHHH
Description: SPR (ProteOn XPR36), bispecific captured on protein A/G, hu DLL3 as analyte, Example 4B. A digest of the protocol:
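Bispecific constructs captured on protein A/G for 200 s at 30 μl/min, baseline stabilized with PBS-T-EDTA. Human DLL3 analyte injected 300 s at 30 μl/min; dissociation followed for 1800 s.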

Assay [3] deals with T3, human DLL3 (endogenous, on SCLC cell lines NCI-H82 and SHP77 and in SCLC tissue) (human, UniProt Q9NYJ7 27-618).
T3 construct: whole, on cells; also called SCLC cell lines expressing DLL3
T3 sequence (looked up): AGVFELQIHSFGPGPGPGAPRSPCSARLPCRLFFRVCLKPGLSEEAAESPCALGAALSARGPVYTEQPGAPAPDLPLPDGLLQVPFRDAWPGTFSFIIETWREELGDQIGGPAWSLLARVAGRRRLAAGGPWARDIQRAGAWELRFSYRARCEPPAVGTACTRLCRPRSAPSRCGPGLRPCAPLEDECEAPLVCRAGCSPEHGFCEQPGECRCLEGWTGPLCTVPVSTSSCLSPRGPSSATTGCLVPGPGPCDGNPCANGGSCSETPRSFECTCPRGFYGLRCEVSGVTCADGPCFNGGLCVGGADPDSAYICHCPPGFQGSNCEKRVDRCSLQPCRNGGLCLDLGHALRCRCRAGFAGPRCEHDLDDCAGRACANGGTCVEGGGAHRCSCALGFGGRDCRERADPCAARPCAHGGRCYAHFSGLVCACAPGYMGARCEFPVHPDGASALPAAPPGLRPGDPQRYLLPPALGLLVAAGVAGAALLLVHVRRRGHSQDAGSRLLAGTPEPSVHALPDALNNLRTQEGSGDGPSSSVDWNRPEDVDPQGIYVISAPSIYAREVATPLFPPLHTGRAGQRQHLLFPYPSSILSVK
Description: flow cytometry titration on SHP77 cells, PE anti-human secondary, x-fold over background. From the text:
Cells (T cells or human SCLC cells) were stained with increasing concentrations of two-step purified DLL3/CD3 binding proteins with increasing concentrations in FACS buffer (PBS/0.5% BSA/0.05% sodium azide). Bound molecules were detected with PE-conjugated anti-human secondary antibody (Sigma-Aldrich, #P8047).
For orientation: A flow cytometer gives signals particle by particle.

Assay [4] deals with T4, FLAG-tagged human DLL1 full length (human, UniProt O00548 1-723).
T4 construct: also called human DLL1 on HEK293 cells
T4 sequence: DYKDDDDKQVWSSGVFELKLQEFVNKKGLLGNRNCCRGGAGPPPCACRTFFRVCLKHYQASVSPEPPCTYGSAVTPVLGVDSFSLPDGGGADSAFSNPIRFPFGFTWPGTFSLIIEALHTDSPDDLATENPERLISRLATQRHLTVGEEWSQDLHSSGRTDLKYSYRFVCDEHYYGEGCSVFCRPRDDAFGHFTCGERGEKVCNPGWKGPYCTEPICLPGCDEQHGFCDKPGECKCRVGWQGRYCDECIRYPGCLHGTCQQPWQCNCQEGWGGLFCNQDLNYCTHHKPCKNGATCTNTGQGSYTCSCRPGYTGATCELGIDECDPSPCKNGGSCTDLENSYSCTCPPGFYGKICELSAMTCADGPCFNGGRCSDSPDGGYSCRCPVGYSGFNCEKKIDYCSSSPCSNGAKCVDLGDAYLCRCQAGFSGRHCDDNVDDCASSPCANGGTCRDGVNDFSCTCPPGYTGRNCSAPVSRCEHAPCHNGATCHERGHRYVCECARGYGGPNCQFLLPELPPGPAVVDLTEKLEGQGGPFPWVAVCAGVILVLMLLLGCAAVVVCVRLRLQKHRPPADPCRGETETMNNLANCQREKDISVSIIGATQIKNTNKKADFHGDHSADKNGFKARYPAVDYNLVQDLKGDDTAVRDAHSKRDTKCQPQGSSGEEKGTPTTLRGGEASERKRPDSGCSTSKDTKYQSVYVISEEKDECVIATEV
Description: flow cytometry on HEK293 cells expressing human DLL1 (HEK293-huDLL1), PE anti-human secondary, control: secondary antibody only. How it is done:
(§1) Bound molecules were detected with PE-conjugated anti-human secondary antibody (Sigma-Aldrich, #P8047). As negative control, cells were incubated with secondary antibody only. The samples were measured by flow-cytometry.

Assay [5] deals with T5, FLAG-tagged human DLL4 full length (human, UniProt Q9NR61 1-685).
T5 construct: also called human DLL4 on HEK293 cells
T5 sequence (Q9NR61 other isoform, or with tags, fused parts or gaps limits assumed): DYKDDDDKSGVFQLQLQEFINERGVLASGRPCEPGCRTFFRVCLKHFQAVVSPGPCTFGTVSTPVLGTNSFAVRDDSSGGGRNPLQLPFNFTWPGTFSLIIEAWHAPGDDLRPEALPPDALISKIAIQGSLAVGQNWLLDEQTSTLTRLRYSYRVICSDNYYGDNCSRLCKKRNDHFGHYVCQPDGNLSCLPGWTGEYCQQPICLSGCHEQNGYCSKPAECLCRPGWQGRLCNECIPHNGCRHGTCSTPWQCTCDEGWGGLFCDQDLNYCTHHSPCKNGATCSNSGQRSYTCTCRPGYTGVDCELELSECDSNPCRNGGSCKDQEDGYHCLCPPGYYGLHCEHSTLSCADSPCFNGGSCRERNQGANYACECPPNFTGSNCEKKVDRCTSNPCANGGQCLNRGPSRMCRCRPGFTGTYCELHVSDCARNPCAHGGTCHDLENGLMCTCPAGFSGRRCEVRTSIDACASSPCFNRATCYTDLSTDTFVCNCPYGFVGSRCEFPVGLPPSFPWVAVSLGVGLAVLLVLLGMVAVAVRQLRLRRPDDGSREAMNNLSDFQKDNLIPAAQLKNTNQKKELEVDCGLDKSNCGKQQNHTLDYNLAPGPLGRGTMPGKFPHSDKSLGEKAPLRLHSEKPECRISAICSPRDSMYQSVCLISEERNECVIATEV
Description: flow cytometry on HEK293 cells expressing human DLL4 (HEK293-huDLL4), PE anti-human secondary, control: secondary antibody only. As for the experimental part:
as §1

From patent US20220251236A1 (Boehringer Ingelheim, published 2022) come the findings set out here.

The Kd is the constant that tells how readily two partners part at equilibrium. Usually EC50 (read off the curve) stands for the concentration at which the effect is half-maximal. Read a high EC50 (read off the curve) as a need for much substance.

T1 sequence (P01070 25-205): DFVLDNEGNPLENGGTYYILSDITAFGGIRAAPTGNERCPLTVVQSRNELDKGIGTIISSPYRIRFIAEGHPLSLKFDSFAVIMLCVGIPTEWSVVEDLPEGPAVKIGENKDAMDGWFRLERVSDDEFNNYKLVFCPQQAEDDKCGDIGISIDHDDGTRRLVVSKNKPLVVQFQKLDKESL

B1: DLL3#5/CD3#1 (bispecific antibody, human IgG1, kappa, lambda, L234A L235A)
chain 1: not shown
chain 2: EAVVTQEPSLTVSPGGTVTLTCRSSTGAVTTSNYANWVQEKPGQLPRGLIGGTNKRAPWVPARFSGSLLGGKAALTLSGAQPEDEAEYFCALWYSNLWVFGGGTKLTVLGQPKAAPSVTLFPPSSEELQANKATLVCLISDFYPGAVKVAWKADGSPVNTGVETTTPSKQSNNKYAASSYLSLTPEQWKSHRSYSCQVTHEGSTVEKTVAPAECSGGGGSEGKSSGSGSESKSTEGKSSGSGSESKSTGGGGSEVQLVESGGGLVQPGGSLKLSCAASGFTFNTYAMNWVRQAPGKGLEWVARIRSKYNNYATYYADSVKDRFTISRDDSKNTAYLQMNNLKTEDTAVYYCVRHGNFGNSYVSWFAYWGQGTLVTVSAASTKGPSVFPLAPSSKSTSGGTAALGCLVKDYFPEPVTVSWNSGALTSGVHTFPAVLQSSGLYSLSSVVTVPSSSLGTQTYICNVNHKPSNTKVDKRVEPKSCDKTHTCPPCPAPEAAGGPSVFLFPPKPKDTLMISRTPEVTCVVVDVSHEDPEVKFNWYVDGVEVHNAKTKPREEQYNSTYRVVSVLTVLHQDWLNGKEYKCKVSNKALPAPIEKTISKAKGQPREPQVYTLPPSREEMTKNQVSLSCAVKGFYPSDIAVEWESNGQPENNYKTTPPVLDSDGSFFLVSKLTVDKSRWQQGNVFSCSVMHEALHNRFTQKSLSLSPG
notes: Heterodimer of one DLL3 chain and one CD3 chain (scFab-Fc, knob-in-hole)
As for B1, in assay [1], the “Non-specific binding (RU)” value is 0 RU. Moreover, in assay [2], the Kd is < 0.02 nM. The concentration for a half-maximal effect (EC50 (read off the curve)) in assay [3] is ~1 nM. Besides, the binding result in assay [4] and in assay [5] was “no binding (tested: 1.6 nM)” each time.

B2: DLL3#4/CD3#1 (bispecific antibody, human IgG1, kappa, lambda, L234A L235A)
chain 1: not shown
chain 2: EAVVTQEPSLTVSPGGTVTLTCRSSTGAVTTSNYANWVQEKPGQLPRGLIGGTNKRAPWVPARFSGSLLGGKAALTLSGAQPEDEAEYFCALWYSNLWVFGGGTKLTVLGQPKAAPSVTLFPPSSEELQANKATLVCLISDFYPGAVKVAWKADGSPVNTGVETTTPSKQSNNKYAASSYLSLTPEQWKSHRSYSCQVTHEGSTVEKTVAPAECSGGGGSEGKSSGSGSESKSTEGKSSGSGSESKSTGGGGSEVQLVESGGGLVQPGGSLKLSCAASGFTFNTYAMNWVRQAPGKGLEWVARIRSKYNNYATYYADSVKDRFTISRDDSKNTAYLQMNNLKTEDTAVYYCVRHGNFGNSYVSWFAYWGQGTLVTVSAASTKGPSVFPLAPSSKSTSGGTAALGCLVKDYFPEPVTVSWNSGALTSGVHTFPAVLQSSGLYSLSSVVTVPSSSLGTQTYICNVNHKPSNTKVDKRVEPKSCDKTHTCPPCPAPEAAGGPSVFLFPPKPKDTLMISRTPEVTCVVVDVSHEDPEVKFNWYVDGVEVHNAKTKPREEQYNSTYRVVSVLTVLHQDWLNGKEYKCKVSNKALPAPIEKTISKAKGQPREPQVYTLPPSREEMTKNQVSLSCAVKGFYPSDIAVEWESNGQPENNYKTTPPVLDSDGSFFLVSKLTVDKSRWQQGNVFSCSVMHEALHNRFTQKSLSLSPG
notes: as for B1
Take B2: the “Non-specific binding (RU)” value in assay [1] turned out to be 37 RU. Moreover, the Kd in assay [2] was < 0.02 nM. Also, the concentration giving a half-maximal response (EC50 (read off the curve)) in assay [3] is ~0.3 nM. Also, the binding result in assay [4] and in assay [5] was “no binding (tested: 1.6 nM)” in each case.

B3: DLL3#6/CD3#1 (bispecific antibody, human IgG1, kappa, lambda, L234A L235A)
chain 1: DIQLTQSPSFLSTSVGDRVTITCRASQDISNYFAWYQQKPGKAPKLLIYAASTLQSGVPSRFSGGGSGTEFTLTISSLQPEDFATYYCQQLNSYPYTFGQGTKLEIKRTVAAPSVFIFPPSDEQLKSGTASVVCLLNNFYPREAKVQWKVDNALQSGNSQESVTEQDSKDSTYSLSSTLTLSKADYEKHKVYACEVTHQGLSSPVTKSFNRGECGGGGSEGKSSGSGSESKSTEGKSSGSGSESKSTGGGGSQVQLQESGPGLVKPSETLSLTCTVSGGSISSYFWSWIRQPAGKGLEWIGRIYTSGSTNYNPSLNSRLTMSVDTSKNQFSLKLSSVTAADTAVYYCARRGDWGGFDIWGQGTVVTVSSASTKGPSVFPLAPSSKSTSGGTAALGCLVKDYFPEPVTVSWNSGALTSGVHTFPAVLQSSGLYSLSSVVTVPSSSLGTQTYICNVNHKPSNTKVDKRVEPKSCDKTHTCPPCPAPEAAGGPSVFLFPPKPKDTLMISRTPEVTCVVVDVSHEDPEVKFNWYVDGVEVHNAKTKPREEQYNSTYRVVSVLTVLHQDWLNGKEYKCKVSNKALPAPIEKTISKAKGQPREPQVYTLPPSREEMTKNQVSLWCLVKGFYPSDIAVEWESNGQPENNYKTTPPVLDSDGSFFLYSKLTVDKSRWQQGNVFSCSVMHEALHNHYTQKSLSLSPG
chain 2: EAVVTQEPSLTVSPGGTVTLTCRSSTGAVTTSNYANWVQEKPGQLPRGLIGGTNKRAPWVPARFSGSLLGGKAALTLSGAQPEDEAEYFCALWYSNLWVFGGGTKLTVLGQPKAAPSVTLFPPSSEELQANKATLVCLISDFYPGAVKVAWKADGSPVNTGVETTTPSKQSNNKYAASSYLSLTPEQWKSHRSYSCQVTHEGSTVEKTVAPAECSGGGGSEGKSSGSGSESKSTEGKSSGSGSESKSTGGGGSEVQLVESGGGLVQPGGSLKLSCAASGFTFNTYAMNWVRQAPGKGLEWVARIRSKYNNYATYYADSVKDRFTISRDDSKNTAYLQMNNLKTEDTAVYYCVRHGNFGNSYVSWFAYWGQGTLVTVSAASTKGPSVFPLAPSSKSTSGGTAALGCLVKDYFPEPVTVSWNSGALTSGVHTFPAVLQSSGLYSLSSVVTVPSSSLGTQTYICNVNHKPSNTKVDKRVEPKSCDKTHTCPPCPAPEAAGGPSVFLFPPKPKDTLMISRTPEVTCVVVDVSHEDPEVKFNWYVDGVEVHNAKTKPREEQYNSTYRVVSVLTVLHQDWLNGKEYKCKVSNKALPAPIEKTISKAKGQPREPQVYTLPPSREEMTKNQVSLSCAVKGFYPSDIAVEWESNGQPENNYKTTPPVLDSDGSFFLVSKLTVDKSRWQQGNVFSCSVMHEALHNRFTQKSLSLSPG
notes: as for B1
For B3, the “Non-specific binding (RU)” value in assay [1] was determined as 0 RU. The molecule also came in with a Kd in assay [2] of 0.152 nM. Moreover, in assay [3], the “EC50 (read off the curve)” value is ~2 nM. For the same molecule, the binding result in assay [4] and in assay [5] was “no binding (tested: 1.6 nM)” each time.
